This test concerns the target human CLDN18.2 expressed on cells (human). Briefly: cell-based or functional assay.

B1: reference mAb (IMAB362, Ganymed) (antibody, INN chains, looked up, V domains shown)
VH: QVQLQQPGAELVRPGASVKLSCKASGYTFTSYWINWVKQRPGQGLEWIGNIYPSDSYTNYNQKFKDKATLTVDKSSSTAYMQLSSPTSEDSAVYYCTRSWRGNSFDYWGQGTTLTVSS
VL: DIVMTQSPSSLTVTAGEKVTMSCKSSQSLLNSGNQKNYLTWYQQKPGQPPKLLIYWASTRESGVPDRFTGSGSGTDFTLTISSVQAEDLAVYYCQNDYSYPFTFGSGTKLEIKR
B1 yielded an ADCC on KATOIII CLDN18.2 cells, LDH: EC50 (nM), run A of 0.12 nM; an ADCC on KATOIII CLDN18.2 cells, LDH: EC50 (nM), run B of 0.22 nM; an ADCC on KATOIII CLDN18.2 cells, LDH: EC50 (nM), run C of 0.27 nM; an ADCC on KATOIII CLDN18.2 cells, LDH: max (% cytotoxity), run A of 27.9%. For the same molecule, the ADCC on KATOIII CLDN18.2 cells, LDH: max (% cytotoxity), run B was 24.5%; the ADCC on KATOIII CLDN18.2 cells, LDH: max (% cytotoxity), run C was 24.5%; the ADCC on NCI-N87 CLDN18.2 cells, LDH: EC50 (nM), run A was found to be 0.057 nM; the ADCC on NCI-N87 CLDN18.2 cells, LDH: EC50 (nM), run B was determined as 0.082 nM. The ADCC on NCI-N87 CLDN18.2 cells, LDH: EC50 (nM), run C was determined as 0.1 nM; the ADCC on NCI-N87 CLDN18.2 cells, LDH: max (% cytotoxity), run A was found to be 26.1%; the ADCC on NCI-N87 CLDN18.2 cells, LDH: max (% cytotoxity), run B came to 22.1%; the ADCC on NCI-N87 CLDN18.2 cells, LDH: max (% cytotoxity), run C is 21.1%. In addition, the CDC on CT26 CLDN18.2 cells, LDH: EC50 (nM), run A came to 11.5 nM; the CDC on CT26 CLDN18.2 cells, LDH: EC50 (nM), run B came out at 10.7 nM; the CDC on CT26 CLDN18.2 cells, LDH: EC50 (nM), run C is 11.9 nM; the CDC on CT26 CLDN18.2 cells, LDH: max (% cytotoxity), run A was determined as 72.5%. Besides, the CDC on CT26 CLDN18.2 cells, LDH: max (% cytotoxity), run B came to 54.7%; the CDC on CT26 CLDN18.2 cells, LDH: max (% cytotoxity), run C amounted to 51.6%; the CDC on KATOIII CLDN18.2 cells, LDH: EC50 (nM), run A worked out at 38.1 nM; the CDC on KATOIII CLDN18.2 cells, LDH: EC50 (nM), run B was found to be 22.7 nM. Besides, the CDC on KATOIII CLDN18.2 cells, LDH: EC50 (nM), run C was found to be 27.5 nM; the CDC on KATOIII CLDN18.2 cells, LDH: max (% cytotoxity), run A is 29.7%; the CDC on KATOIII CLDN18.2 cells, LDH: max (% cytotoxity), run B worked out at 46%; the CDC on KATOIII CLDN18.2 cells, LDH: max (% cytotoxity), run C was found to be 34.9%.

The values above are taken from patent publication US20250263482A1.
